Assay results as given in patent publication US20060062780A1.

Legend:
[1] = target: MOG-reactive B-cell receptor on B cells of anti-MOG transgenic mice; assay: flow cytometry on splenocytes, goat-anti-human IgG FITC
[2] = target: MOG-reactive B-cell receptor on B cells of anti-MOG transgenic mice; assay: cell-based or functional assay

percent of IgM-positive splenocytes that bound (% of IgM-positive splenocytes) [1]: > 90 | ex vivo B cell depletion, splenocytes of anti-MOG transgenic mice, 10 µg/ml, 16 h [2]: 70%
Substance: MOG-Fc fusion protein
